Source: patent US20030219858A1

Biological target: human heteromultimeric ASIC-2S.2 channel (human ASIC2A + human ASIC3) (human) (UniProt Q16515)
Test: cell-based or functional assay

Sequence of human heteromultimeric ASIC-2S.2 channel (human ASIC2A + human ASIC3) (human) (Q16515 whole entry, chain 1 of 2): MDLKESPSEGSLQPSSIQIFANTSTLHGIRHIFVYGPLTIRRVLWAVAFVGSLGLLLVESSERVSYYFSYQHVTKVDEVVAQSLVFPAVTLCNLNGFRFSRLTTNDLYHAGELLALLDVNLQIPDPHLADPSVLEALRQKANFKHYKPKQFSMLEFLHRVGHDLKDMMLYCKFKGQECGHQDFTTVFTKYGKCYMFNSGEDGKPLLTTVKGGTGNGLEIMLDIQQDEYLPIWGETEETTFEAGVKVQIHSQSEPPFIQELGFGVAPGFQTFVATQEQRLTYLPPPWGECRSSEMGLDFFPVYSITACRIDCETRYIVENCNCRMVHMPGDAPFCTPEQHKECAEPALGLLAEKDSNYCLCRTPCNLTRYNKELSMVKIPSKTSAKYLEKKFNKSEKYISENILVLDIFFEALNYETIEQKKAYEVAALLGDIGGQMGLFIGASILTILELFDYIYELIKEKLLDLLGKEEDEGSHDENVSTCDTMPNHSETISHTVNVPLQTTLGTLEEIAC
Sequence of human heteromultimeric ASIC-2S.2 channel (human ASIC2A + human ASIC3) (human) (chain, as listed by the source, chain 2 of 2): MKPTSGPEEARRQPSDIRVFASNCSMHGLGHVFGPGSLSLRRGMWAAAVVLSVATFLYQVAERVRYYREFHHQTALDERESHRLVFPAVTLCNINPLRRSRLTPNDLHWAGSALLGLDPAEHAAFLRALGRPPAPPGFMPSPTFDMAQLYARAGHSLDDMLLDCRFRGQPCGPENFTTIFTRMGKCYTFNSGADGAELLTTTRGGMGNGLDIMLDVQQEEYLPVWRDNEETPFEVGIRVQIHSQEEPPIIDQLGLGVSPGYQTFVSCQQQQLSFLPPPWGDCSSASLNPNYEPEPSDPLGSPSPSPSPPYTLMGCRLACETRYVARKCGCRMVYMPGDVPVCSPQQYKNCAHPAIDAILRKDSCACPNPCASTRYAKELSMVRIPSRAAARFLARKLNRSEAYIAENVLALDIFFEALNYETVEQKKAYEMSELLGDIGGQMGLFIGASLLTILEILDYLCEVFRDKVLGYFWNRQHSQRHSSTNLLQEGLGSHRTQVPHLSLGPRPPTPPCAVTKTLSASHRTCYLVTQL

EC50 of potentiation of currents induced by pH 4: 2 µM
Substance: NPFF (from UniProt O15130 69-76) (peptide)
